{"source": "paper doi:10.1101/2023.03.17.532992", "key": {"[1]": {"molecular_target": "nucleosome core particle (recombinant X. laevis histone octamer on 601 positioning DNA) (X. laevis)", "assay": "native gel or EMSA"}, "[2]": {"molecular_target": "nucleosome core particle (recombinant X. laevis histone octamer on 601 positioning DNA) (X. laevis)", "assay": "MST"}, "[3]": {"molecular_target": "nucleosome core particle (recombinant X. laevis histone octamer on 601 positioning DNA) (X. laevis)", "assay": "AUC"}, "[4]": {"molecular_target": "nucleosome core particle (recombinant X. laevis histone octamer on 601 positioning DNA) (X. laevis)", "assay": "SEC-MALS"}}, "data": [{"substance": "BCL7A (1-100) truncation mutant (from UniProt Q4VC05-2 1-100) (domain or fragment)", "values": [{"measurement": "Kd", "setting": "[1]", "value": 437, "unit": "nM"}]}, {"substance": "BCL7A P78S mutant protein (from UniProt Q4VC05-2 1-231) (natural protein)", "values": [{"measurement": "decrease of binding affinity against wild type", "setting": "[1]", "value": 50, "unit": "%"}]}, {"substance": "BCL7A R11S mutant protein (from UniProt Q4VC05-2 1-231) (natural protein)", "values": [{"measurement": "decrease of binding affinity against wild type", "setting": "[1]", "value": 50, "unit": "%"}]}, {"substance": "BCL7A, full length human (isoform Q4VC05-2, 231 amino acids) (from UniProt Q4VC05-2 1-231) (natural protein)", "values": [{"measurement": "Kd", "setting": "[2]", "value": 230, "unit": "nM"}, {"measurement": "stoichiometry N (BCL7A per NCP)", "setting": "[3]", "value": 1}, {"measurement": "Kd", "setting": "[1]", "value": 218, "unit": "nM"}, {"measurement": "stoichiometry N (BCL7A per NCP)", "setting": "[4]", "value": 1}]}, {"substance": "BCL7C, full length (from UniProt Q8WUZ0 1-217) (natural protein)", "values": [{"measurement": "Kd", "setting": "[1]", "value": 124, "unit": "nM"}]}]}
